US10471162B2, “Collagen targeted imaging probes” (priority 2014, dated 2019)

System: pulmonary fibrosis, C57/BL6 mice (bleomycin or sham)
Details: mouse, in vivo
Description: Pulmonary fibrosis was induced in 7-8-week-old male C57/BL6 mice by transtracheal administration of bleomycin (BM; 2.5 U/kg) in 50 μL of PBS under direct vision using a small cervical incision. Sham animals received only PBS. Animals were placed in a small-animal PET/SPECT/CT scanner (Triumph; TriFoil Imaging), equipped with inhalation anesthesia and heating pad. Each animal was anesthetized with isoflurane (4% for induction, 1-1.5% for maintenance in medical air). After placement of an in-dwelling catheter in the femoral vein for probe administration, mice were positioned in the PET-CT and the probe was given as a bolus as the PET acquisition began. Mice were imaged continuously by PET for 120 minutes. […] Instrument calibration was performed with phantoms containing small known amounts of radioactivity. […] Reconstructed PET/CT data were quantitatively evaluated using AMIDE software package (Loening and Gambhir, 2003). […] The radioactivity concentration within organs was obtained from mean pixel values within the VOI volume and converted to counts per milliliter per minute and then divided by the injected dose (ID) to obtain an imaging VOI-derived percentage of the injected radioactive dose per cubic centimeter of tissue (% ID/cc). […] Instrument calibration was performed with phantoms containing small known amount of radioactivity. […]

CC(C)C[C@H](NC(=O)[C@@H]1CSSC[C@H](NC(=O)[C@H](Cc2c[nH]cn2)NC(=O)[C@H](Cc2c[nH]c3ccccc23)NC(=O)[C@H](CCCCNC(=O)CNC(=O)CCC(C(=O)O)N2CCN(CC(=O)O)CCN(CC(=O)O)CC2)NC(=O)CNC(=O)CCC(C(=O)O)N2CCN(CC(=O)O)CCN(CC(=O)O)CC2)C(=O)N[C@@H]([C@@H](C)O)C(=O)N[C@@H]([C@@H](C)O)C(=O)N[C@@H](CCCCNC(=O)CCC(C(=O)O)N2CCN(CC(=O)O)CCN(CC(=O)O)CC2)C(=O)N[C@@H](Cc2ccccc2)C(=O)N2CCC[C@H]2C(=O)N[C@@H](Cc2c[nH]cn2)C(=O)N[C@@H](Cc2c[nH]cn2)C(=O)N[C@@H](Cc2ccc(O)cc2)C(=O)N1)C(=O)N[C@@H](Cc1ccc(O)cc1)C(=O)N[C@@H](Cc1ccc(-c2ccccc2)cc1)C(N)=O (single isomer, unassigned) [CBP8]
Mean PET activity in heart and muscle, BM-treated vs sham, in words: not significantly different
